Reference: paper PMC8488679

Key:
[1] = target: Apoptosis-inducing factor 1 (AIFM1) (bovine (endogenous in bovine heart mitochondria)); test: complexome profiling
[2] = target: cytochrome c oxidase (COX), monomeric (bovine (endogenous in bovine heart mitochondria)) (UniProt P68530); test: complexome profiling
UniProt P68530, sequence (P68530 whole entry, looked up): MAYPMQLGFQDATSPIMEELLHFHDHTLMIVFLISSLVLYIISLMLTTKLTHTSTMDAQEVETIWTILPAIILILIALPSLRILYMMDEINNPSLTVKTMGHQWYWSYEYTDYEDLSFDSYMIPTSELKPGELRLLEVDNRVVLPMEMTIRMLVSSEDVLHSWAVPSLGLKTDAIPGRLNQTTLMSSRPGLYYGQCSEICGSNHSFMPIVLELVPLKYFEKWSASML

Substance: Apoptosis-inducing factor 1 (AIFM1) (natural protein)
- stoichiometry N [1]: 2
- percent of monomeric COX engaged in the complex [2]: 10%
